Results on 3 proteins are retold here after US20230183713A1, “SITE-SPECIFIC RECOMBINASES FOR EFFICIENT AND SPECIFIC GENOME EDITING” (TECHNISCHE UNIVERSITÄt DRESDEN, published 2023).

Data set [1] concerns the target T1, Cre recombinase monomer with Y324M mutation.
T1 chain: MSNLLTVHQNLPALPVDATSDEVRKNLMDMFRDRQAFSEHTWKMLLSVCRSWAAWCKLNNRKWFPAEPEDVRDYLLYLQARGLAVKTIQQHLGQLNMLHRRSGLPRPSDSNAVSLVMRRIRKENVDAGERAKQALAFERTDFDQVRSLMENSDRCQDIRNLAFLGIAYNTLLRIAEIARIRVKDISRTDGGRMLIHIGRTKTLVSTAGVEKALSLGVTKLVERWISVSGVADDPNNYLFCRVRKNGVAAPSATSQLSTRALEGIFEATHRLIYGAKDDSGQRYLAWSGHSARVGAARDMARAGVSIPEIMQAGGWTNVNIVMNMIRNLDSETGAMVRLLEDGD

In data set [2] the target is T2, Cre recombinase monomer with R292W mutation.
T2 chain: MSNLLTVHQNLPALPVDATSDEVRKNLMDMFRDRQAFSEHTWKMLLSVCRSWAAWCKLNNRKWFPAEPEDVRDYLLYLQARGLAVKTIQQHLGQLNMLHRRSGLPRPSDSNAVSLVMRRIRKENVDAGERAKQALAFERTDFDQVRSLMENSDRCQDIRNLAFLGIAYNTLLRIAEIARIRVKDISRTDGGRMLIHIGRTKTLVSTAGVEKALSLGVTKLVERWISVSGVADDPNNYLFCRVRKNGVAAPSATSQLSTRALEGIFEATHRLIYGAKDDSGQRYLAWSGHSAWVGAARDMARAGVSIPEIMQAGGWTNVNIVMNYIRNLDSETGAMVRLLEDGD

Data set [3] deals with T3, Cre recombinase monomer with Q311R mutation.
T3 chain: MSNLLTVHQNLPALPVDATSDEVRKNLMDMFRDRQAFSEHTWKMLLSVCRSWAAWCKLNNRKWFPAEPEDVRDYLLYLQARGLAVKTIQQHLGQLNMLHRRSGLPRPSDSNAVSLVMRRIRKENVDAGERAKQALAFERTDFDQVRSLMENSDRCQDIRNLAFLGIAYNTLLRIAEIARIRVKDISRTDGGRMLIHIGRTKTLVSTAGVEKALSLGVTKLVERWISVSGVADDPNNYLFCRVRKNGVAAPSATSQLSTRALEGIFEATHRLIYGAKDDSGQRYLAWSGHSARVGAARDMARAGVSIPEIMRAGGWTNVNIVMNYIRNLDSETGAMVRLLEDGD

For data set [4], the target named is T4, Cre recombinase monomer with W315I mutation.
T4 chain: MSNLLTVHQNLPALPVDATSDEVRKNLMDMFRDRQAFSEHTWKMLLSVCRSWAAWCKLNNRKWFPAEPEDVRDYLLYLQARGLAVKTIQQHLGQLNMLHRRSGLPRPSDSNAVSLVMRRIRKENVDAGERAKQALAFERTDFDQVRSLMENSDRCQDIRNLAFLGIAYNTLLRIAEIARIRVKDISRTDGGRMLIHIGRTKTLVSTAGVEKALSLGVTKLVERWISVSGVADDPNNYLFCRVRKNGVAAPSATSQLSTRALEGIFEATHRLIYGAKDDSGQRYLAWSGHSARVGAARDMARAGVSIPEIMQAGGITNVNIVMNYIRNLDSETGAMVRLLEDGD

Data set [5] addresses T5, Cre recombinase monomer with E176H mutation.
T5 chain: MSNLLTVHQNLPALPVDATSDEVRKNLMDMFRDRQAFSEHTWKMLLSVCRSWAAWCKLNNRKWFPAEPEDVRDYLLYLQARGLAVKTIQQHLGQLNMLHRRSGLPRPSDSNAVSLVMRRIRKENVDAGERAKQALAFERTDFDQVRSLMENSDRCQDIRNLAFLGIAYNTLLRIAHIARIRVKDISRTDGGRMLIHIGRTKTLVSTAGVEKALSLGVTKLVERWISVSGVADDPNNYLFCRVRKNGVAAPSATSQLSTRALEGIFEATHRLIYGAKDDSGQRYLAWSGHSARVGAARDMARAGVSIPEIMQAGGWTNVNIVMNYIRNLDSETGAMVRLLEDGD

Data set [6] concerns the target T6, Cre recombinase monomer with E176V mutation.
T6 chain: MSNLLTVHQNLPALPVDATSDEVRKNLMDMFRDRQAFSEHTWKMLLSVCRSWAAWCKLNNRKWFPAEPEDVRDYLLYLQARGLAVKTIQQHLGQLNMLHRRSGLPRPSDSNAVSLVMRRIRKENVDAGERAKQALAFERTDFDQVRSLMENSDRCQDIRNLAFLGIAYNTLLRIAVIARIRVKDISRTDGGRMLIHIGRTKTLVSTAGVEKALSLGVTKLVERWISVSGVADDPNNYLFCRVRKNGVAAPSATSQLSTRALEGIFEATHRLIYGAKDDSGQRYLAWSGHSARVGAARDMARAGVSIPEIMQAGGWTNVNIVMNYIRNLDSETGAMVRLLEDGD

Data set [7] concerns the target T7, Cre recombinase monomer with E176I mutation.
T7 chain: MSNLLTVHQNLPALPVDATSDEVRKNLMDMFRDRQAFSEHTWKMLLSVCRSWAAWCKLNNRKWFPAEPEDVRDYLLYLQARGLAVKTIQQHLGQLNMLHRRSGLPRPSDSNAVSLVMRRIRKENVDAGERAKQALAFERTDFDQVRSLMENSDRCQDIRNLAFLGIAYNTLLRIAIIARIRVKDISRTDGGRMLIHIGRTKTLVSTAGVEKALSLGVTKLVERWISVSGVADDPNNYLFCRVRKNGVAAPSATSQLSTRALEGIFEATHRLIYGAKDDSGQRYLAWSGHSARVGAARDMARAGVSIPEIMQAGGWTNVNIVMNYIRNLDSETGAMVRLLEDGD

Data set [8] deals with T8, Cre recombinase monomer with K201W mutation.
T8 chain: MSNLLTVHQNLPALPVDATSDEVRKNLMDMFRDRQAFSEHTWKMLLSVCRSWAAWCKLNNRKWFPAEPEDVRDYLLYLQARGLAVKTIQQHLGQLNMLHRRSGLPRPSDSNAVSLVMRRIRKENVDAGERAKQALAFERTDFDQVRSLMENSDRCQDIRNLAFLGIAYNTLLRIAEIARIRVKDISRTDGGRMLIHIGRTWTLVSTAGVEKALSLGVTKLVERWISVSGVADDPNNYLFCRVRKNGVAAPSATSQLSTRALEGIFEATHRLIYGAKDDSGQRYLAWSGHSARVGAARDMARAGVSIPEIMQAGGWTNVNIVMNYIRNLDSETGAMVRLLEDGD

Data set [9] deals with T9, Cre recombinase monomer with Y324E mutation.
T9 chain: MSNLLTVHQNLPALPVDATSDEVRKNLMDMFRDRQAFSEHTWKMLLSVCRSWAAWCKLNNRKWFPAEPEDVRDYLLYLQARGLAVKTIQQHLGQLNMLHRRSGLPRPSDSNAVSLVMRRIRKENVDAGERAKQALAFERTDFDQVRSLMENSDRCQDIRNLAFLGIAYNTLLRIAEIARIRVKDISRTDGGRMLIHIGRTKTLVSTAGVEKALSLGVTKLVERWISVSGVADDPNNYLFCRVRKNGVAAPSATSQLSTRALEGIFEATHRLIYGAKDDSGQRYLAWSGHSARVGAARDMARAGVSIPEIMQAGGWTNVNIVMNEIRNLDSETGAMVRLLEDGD

B1: Cre recombinase monomer with R173N mutation (protein)
chain: MSNLLTVHQNLPALPVDATSDEVRKNLMDMFRDRQAFSEHTWKMLLSVCRSWAAWCKLNNRKWFPAEPEDVRDYLLYLQARGLAVKTIQQHLGQLNMLHRRSGLPRPSDSNAVSLVMRRIRKENVDAGERAKQALAFERTDFDQVRSLMENSDRCQDIRNLAFLGIAYNTLLNIAEIARIRVKDISRTDGGRMLIHIGRTKTLVSTAGVEKALSLGVTKLVERWISVSGVADDPNNYLFCRVRKNGVAAPSATSQLSTRALEGIFEATHRLIYGAKDDSGQRYLAWSGHSARVGAARDMARAGVSIPEIMQAGGWTNVNIVMNYIRNLDSETGAMVRLLEDGD
B1: the “Median dimer activity (recombination on loxP)” value (“Median dimer activity” for short) in data set [1] is reported as 51%; in data set [2] it was 44%; in data set [3] it was 96%; in data set [4], 38%.

B2: Cre recombinase monomer with R173T mutation (protein)
chain: MSNLLTVHQNLPALPVDATSDEVRKNLMDMFRDRQAFSEHTWKMLLSVCRSWAAWCKLNNRKWFPAEPEDVRDYLLYLQARGLAVKTIQQHLGQLNMLHRRSGLPRPSDSNAVSLVMRRIRKENVDAGERAKQALAFERTDFDQVRSLMENSDRCQDIRNLAFLGIAYNTLLTIAEIARIRVKDISRTDGGRMLIHIGRTKTLVSTAGVEKALSLGVTKLVERWISVSGVADDPNNYLFCRVRKNGVAAPSATSQLSTRALEGIFEATHRLIYGAKDDSGQRYLAWSGHSARVGAARDMARAGVSIPEIMQAGGWTNVNIVMNYIRNLDSETGAMVRLLEDGD
B2: the “Median dimer activity” value stood at 92% in [3]; 56% in [5]; 65% in data set [6]; 72% in data set [7]; 91% in data set [8].

B3: Cre recombinase monomer with R173S mutation (protein)
chain: MSNLLTVHQNLPALPVDATSDEVRKNLMDMFRDRQAFSEHTWKMLLSVCRSWAAWCKLNNRKWFPAEPEDVRDYLLYLQARGLAVKTIQQHLGQLNMLHRRSGLPRPSDSNAVSLVMRRIRKENVDAGERAKQALAFERTDFDQVRSLMENSDRCQDIRNLAFLGIAYNTLLSIAEIARIRVKDISRTDGGRMLIHIGRTKTLVSTAGVEKALSLGVTKLVERWISVSGVADDPNNYLFCRVRKNGVAAPSATSQLSTRALEGIFEATHRLIYGAKDDSGQRYLAWSGHSARVGAARDMARAGVSIPEIMQAGGWTNVNIVMNYIRNLDSETGAMVRLLEDGD
As to B3, the “Median dimer activity” value is 97% in [3], 49% in data set [6] and 59% in data set [9].
